One block for each substance: values may come before it.
Key:
LARGE1ΔTM [1] = molecular target: LARGE1ΔTM (UniProt O95461); test: SAXS
LARGE1ΔTM [2] = molecular target: LARGE1ΔTM (UniProt O95461); test: SEC-MALS
[3] = molecular target: LARGE1ΔTM treated with PNGase F (UniProt O95461); test: SEC-MALS
LARGE2ΔTM [4] = molecular target: LARGE2ΔTM (UniProt Q8N3Y3); test: SAXS
LARGE2ΔTM [5] = molecular target: LARGE2ΔTM (UniProt Q8N3Y3); test: SEC-MALS
[6] = molecular target: LARGE2ΔTM treated with PNGase F (UniProt Q8N3Y3); test: SEC-MALS

LARGE2ΔTM, sequence (Q8N3Y3 whole entry, stated change not applied): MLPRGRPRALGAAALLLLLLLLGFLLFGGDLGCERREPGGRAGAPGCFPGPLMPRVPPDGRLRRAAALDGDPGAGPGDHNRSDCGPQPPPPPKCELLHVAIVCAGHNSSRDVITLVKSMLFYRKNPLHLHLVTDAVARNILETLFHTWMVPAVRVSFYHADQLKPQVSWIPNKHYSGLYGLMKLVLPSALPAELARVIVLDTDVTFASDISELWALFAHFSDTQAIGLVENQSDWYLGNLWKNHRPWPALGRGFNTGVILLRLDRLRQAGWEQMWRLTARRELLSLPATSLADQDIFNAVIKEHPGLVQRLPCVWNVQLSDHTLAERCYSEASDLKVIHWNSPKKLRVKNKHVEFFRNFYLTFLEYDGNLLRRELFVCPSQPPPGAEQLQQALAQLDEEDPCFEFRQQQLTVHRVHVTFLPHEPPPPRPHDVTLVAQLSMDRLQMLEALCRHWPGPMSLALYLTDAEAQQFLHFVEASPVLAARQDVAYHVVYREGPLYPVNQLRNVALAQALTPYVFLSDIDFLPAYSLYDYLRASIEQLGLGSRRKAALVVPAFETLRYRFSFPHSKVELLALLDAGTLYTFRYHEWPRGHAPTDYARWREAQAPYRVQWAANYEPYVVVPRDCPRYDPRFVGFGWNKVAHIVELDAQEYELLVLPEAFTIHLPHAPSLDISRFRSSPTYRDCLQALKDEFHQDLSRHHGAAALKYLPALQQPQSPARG
LARGE1ΔTM, sequence (O95461 34-756, stated change not applied): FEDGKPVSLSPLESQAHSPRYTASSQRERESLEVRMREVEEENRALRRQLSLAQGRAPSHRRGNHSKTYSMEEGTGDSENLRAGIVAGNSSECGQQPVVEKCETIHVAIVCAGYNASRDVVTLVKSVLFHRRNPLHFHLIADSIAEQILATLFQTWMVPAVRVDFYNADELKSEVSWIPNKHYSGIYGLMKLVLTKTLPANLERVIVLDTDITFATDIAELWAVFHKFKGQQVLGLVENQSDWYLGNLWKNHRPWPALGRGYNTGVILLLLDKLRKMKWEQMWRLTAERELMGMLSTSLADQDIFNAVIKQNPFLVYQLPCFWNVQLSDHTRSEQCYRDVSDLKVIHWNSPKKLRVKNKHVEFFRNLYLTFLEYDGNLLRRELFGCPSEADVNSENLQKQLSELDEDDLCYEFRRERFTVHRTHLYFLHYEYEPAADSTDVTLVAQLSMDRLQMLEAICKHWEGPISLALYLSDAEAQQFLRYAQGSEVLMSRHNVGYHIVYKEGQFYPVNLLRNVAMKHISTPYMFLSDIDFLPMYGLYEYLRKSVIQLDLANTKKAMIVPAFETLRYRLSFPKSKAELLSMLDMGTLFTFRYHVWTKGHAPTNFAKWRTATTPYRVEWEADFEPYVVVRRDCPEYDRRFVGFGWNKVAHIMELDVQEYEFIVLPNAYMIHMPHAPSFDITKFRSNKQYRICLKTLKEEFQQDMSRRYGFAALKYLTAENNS

stoichiometry N (LARGE1ΔTM [1]): 2 | stoichiometry N (LARGE1ΔTM [2]): 2
Substance: LARGE1ΔTM (from UniProt O95461 34-756) (enzyme)

stoichiometry N [3]: 2
Substance: LARGE1ΔTM treated with PNGase F (from UniProt O95461 34-756) (enzyme)

stoichiometry N (LARGE2ΔTM [4]): 2 | stoichiometry N (LARGE2ΔTM [5]): 2
Substance: LARGE2ΔTM (from UniProt Q8N3Y3 1-721) (enzyme)

stoichiometry N [6]: 2
Substance: LARGE2ΔTM treated with PNGase F (from UniProt Q8N3Y3 1-721) (enzyme)
